Laboratory results: the supplement of paper PMC10567573

B1: EPB41L3 (parent)
chain: SMQCKVILLDGSEYTCDVEKRSRG
B2: GNAI1 (parent)
chain: WIHCFEGVTAIIFCVALSDYDLVL

Variants of: B1
Assay: protein stability index of a GFP-peptide fusion (GPS, HEK-293T) (PSI 1-6); higher = more stable
Settings: c terminus: a fixed tail appended
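Note: lentivirally expressed fusions sorted by FACS into six bins by GFP to DsRed ratio, PSI derived from sequencing read proportions per bin multiplied by bin number.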

Protein stability index: each site, then its substitutions
S22: M 2.4 | F 2.38 | T 3.63 | G 3.02 | V 2.12 | Y 2.38 | H 2.89 | E 3.75 | N 3.47 | P 2.56 | W 2.11 | R 3.11 | I 2.16 | D 2.52 | L 2.08 | C 2.09 | A 2.29
R21: N 1.92 | M 1.88 | V 2.19 | I 1.88 | C 2.86 | L 2.31 | T 2.84 | Q 2.55 | H 2.72 | G 2.73 | P 3.06 | Y 2.09 | W 1.57 | K 3.56 | E 3.09 | D 3.49
K20: W 1.02 | V 2.11
R23: N 2.52 | Y 2.22 | H 3.31 | C 3.04 | P 2.51 | T 3.61 | M 2.72 | K 3.39 | L 2.8 | A 3.05 | E 2.63 | F 2.07 | S 3.17 | Q 2.87 | D 3.51 | I 2.45 | V 2.88
G24: L 2.47 | Y 2.25 | C 2.56 | W 2.88 | F 2.47 | S 3.48 | Q 2.17 | I 1.98 | M 2.51 | P 2.47 | T 3.25 | D 2.37 | R 2.84 | A 3.43 | V 2.83 | N 3.27 | K 2.99 | E 3 | H 2.47

Variants of: B2
Assay: as above
Settings: c terminus: a fixed tail appended

Protein stability index, by site and new letter:
I12: L 3.2 | K 1.93 | Q 1 | T 1.79 | H 1.71 | Y 3.14 | R 5.41 | S 2.84 | F 3.41 | W 2.95
D21: I 3.09 | W 2.27 | E 4.04 | L 2.81 | F 4.12 | N 3.81 | K 3.74 | C 3.01 | T 4.09 | M 2.88 | S 2.76
C14: L 1.8 | F 3.23 | G 2.52 | P 2.46 | H 2.66 | A 1.32 | I 3.89 | N 2.56 | R 4.07 | T 4.02 | Y 3.37 | D 4.12 | S 3.26
F13: Q 3.46 | K 4.12 | N 2.17 | T 2.07 | C 2.64 | P 2.43 | G 2.34 | I 4.07 | E 1.84
A10: N 3.19 | W 2.06 | D 1.51 | G 2.08 | C 4.03 | I 1.8 | L 4.17 | F 2.31 | K 2.31
C4: K 3.1 | P 2.69 | Y 2.43 | E 2.83 | Q 3.17 | F 2.8 | R 2.97 | G 3.37 | T 2.39 | M 2.25 | W 4.22
S18: I 4.92 | V 2.2 | P 2.3 | L 4.7 | A 1.86 | D 2.67 | E 4.41 | N 2.34 | Q 4.04 | W 2.62 | F 1.9
V8: A 2.56 | L 2.78 | K 1.95 | N 2.3 | G 1.82 | D 2.79 | S 1.65 | Y 2.2 | F 3.11 | C 3.33 | R 3.63 | P 2.99 | M 2.09 | I 3.14
H3: T 3.21 | F 1.75 | D 3.95 | Y 3.39 | C 1.69 | N 3.58 | E 3.35 | I 2.8 | K 3.35 | V 2.98
L22: H 1.34 | M 2.77 | K 3.61 | P 1.98 | F 2.5 | W 3.57 | Y 2.52 | S 3.61 | Q 3.71 | D 3.04 | V 4.39 | C 1.87 | N 1.85
Y20: C 2.61 | N 3.6 | G 2.45 | R 2.75 | T 4.04 | D 3.02 | S 2.35 | E 2.71 | L 3.28 | F 3.7 | I 3.91 | K 2.02 | M 1.56 | A 3
I2: A 2.9 | Y 3.56 | T 2.12 | L 1.83 | G 1.7 | H 2.9 | E 3.25 | F 1.63 | Q 3.22 | R 2.34
W1: P 3.51 | H 3.09 | S 1.5 | V 3.35 | G 2.14 | Y 3.22 | L 3.13 | A 3.11 | E 2.82 | K 3.4 | Q 1.72 | T 2.32
E6: L 4.47 | C 1.95 | F 1.87 | D 2.74 | I 3.12 | Q 1.76 | G 2.32 | R 3.24 | T 2.2 | A 2.75
V15: C 3.06 | M 1.77 | Q 3.42 | Y 3.25 | D 2.61 | F 3.93 | P 3.22 | K 3.22
I11: N 3.83 | V 3.49 | M 3.01 | S 4.32 | T 1.61 | H 3.5 | K 3.52 | Q 1.86 | P 2.79 | Y 3.17 | C 3.28 | A 1.48
F5: M 2.91 | C 1.78 | I 3.65 | A 3.47 | N 2.79 | H 3.07 | P 3.42 | D 2.6 | Q 2.79
T9: Q 2.66 | I 4.15 | S 2 | R 2.51 | G 2.84 | H 3.23 | C 2.57 | K 2.17 | D 3.05
A16: M 2.41 | H 1.78 | D 2.96 | V 1.64 | Y 4.61 | N 2.25 | Q 2.56 | L 3.16
D19: K 3.29 | C 3.67 | L 2.58 | E 3.67 | S 2.77 | I 1.44 | Q 2.96 | V 3.39 | A 2.02 | F 3.69 | G 3.1 | M 1.58 | P 3.43 | H 2.87
L24: G 3.06 | R 3.04 | A 1.85 | N 4.75 | M 2.29 | P 2.78 | D 2.92 | K 3.06 | T 3.34 | W 1.92 | F 2.34 | I 3.87 | E 1.42 | Q 1.69
V23: K 3.57 | R 2.89 | P 2.28 | S 2.21 | H 4 | E 2.71 | T 3.6 | F 2.29 | I 2.7 | N 3.29
L17: V 3.19 | D 3.5 | W 3.09 | Y 2.83 | H 2.71 | R 2.51 | E 3.42 | T 2.04 | Q 3.55 | A 3.93 | K 2.55
G7: R 2.02 | Q 2.28 | S 2.44 | H 2.92 | D 3.39 | C 4.35 | L 2.54 | P 5.18 | I 4.42 | M 1.99 | Y 2.62
